Square brackets hold non-standard residues; d marks the D form. Ends that are not written are not given here. Peptide text beside a SMILES is read from it. Tyr(3-NO2) = N[C@@H](Cc1ccc(O)c([N+](=O)[O-])c1)C(=O)O; 2Abz = Nc1ccccc1C(=O)O
Columns and labels:
[1] = target: sarcoplasmic reticulum (SR) and endoplasmic reticulum (ER) Ca^2+-ATPase (SERCA) pump; conditions: read-out: apparent dissociation constant for TG from the SERCA pump; cited from earlier work
[2] = plasma stability of acetylated versus non-acetylated peptide (plasma species not stated); type: in vitro ADME; conditions: plate-reader assay and analytical HPLC
Protocol: Mouse plasma was obtained from cardiac puncture of anesthetized mice prior to euthanization by CO2 overdose according to protocols approved by the Johns Hopkins Animal Care and Use Committee. Human plasma was obtained from discarded, pooled, and unlabeled clinical samples. Plasma was diluted to 50% in Tris buffer (50 mM Tris-HCl, 100 mM NaCl, pH 7.8). To this, test peptides/prodrugs were added to 250 or 500 μM final concentration. After the incubation period, one volume (200 μl) of acetonitrile was added to precipitate the protein fraction and the tube was centrifuged at 14,000 for 2 min. The supernatant was analyzed by C18-HPLC and the collected peaks were analyzed by MALDI-TOF as described above.
To determine whether merely the acetylation of the N-terminus of the hK2 prodrug contributed to its stability, an acetylated fluorescence-quenched peptide (ac-Y′GKAFRRLGK′; SEQ ID NO:18) was synthesized and compared its plasma stability with that of the non-acetylated peptide (Y′GKAFRRLGK′; SEQ ID NO:21). […] Analytical HPLC indicated the same result. […] The paradoxical stability of the hK2 prodrug (ac-GKAFRR-L12ADT; SEQ ID NO:41) compared to the peptide substrates may also be due to binding of the L12ADT moiety to plasma proteins that make it inaccessible to the plasma protease activity that is responsible for hydrolysis of unconjugated (and unbound) peptides.

[3] = target: Cathepsin D (Homo sapiens, UniProt P07339); test: hydrolysis by tumor-associated proteases: Cathepsin D; type: biochemical
Cathepsin D, sequence (P07339 65-412, species assumed): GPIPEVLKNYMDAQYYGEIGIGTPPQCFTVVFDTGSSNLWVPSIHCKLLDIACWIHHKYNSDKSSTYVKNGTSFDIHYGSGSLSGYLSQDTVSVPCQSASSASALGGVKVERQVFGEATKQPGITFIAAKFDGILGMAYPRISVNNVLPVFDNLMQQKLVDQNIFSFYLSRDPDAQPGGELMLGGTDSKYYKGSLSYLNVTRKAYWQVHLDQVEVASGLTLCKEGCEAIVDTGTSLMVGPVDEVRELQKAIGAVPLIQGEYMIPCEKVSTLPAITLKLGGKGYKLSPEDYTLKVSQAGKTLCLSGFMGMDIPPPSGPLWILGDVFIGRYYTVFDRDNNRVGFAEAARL
From the text: (§1) Due to their short length, the hK2 peptide substrates could potentially be substrates for other trypsin-like proteases. Although a rather specific protease substrate can be defined with 7 amino acids, there is a lack of higher order structural information by which natural protein substrates normally impose high specificity. Cancer progression is often correlated with increased protease activity (Koblinsli, J. E. et al. (2000) Clin. Chim. Acta 291:113-135). These activities could be potentially beneficial since they could broaden the scope of applications for protease activated prodrugs. To test the hypothesis that other tumor-associated proteases could activate the prodrug, a number of known proteases (table 3), implicated in cancer progression were selected to determine if our lead substrate, GKAFRRL (SEQ ID NO:30) could be efficiently hydrolyzed by any of these proteases. For this analysis, the trypsin-like serine proteases plasmin and urokinase and cathepsins B and D were selected. Hydrolysis of both the fluorescence quenched peptide substrate and the TG-prodrug was analyzed. […] Plasmin, therefore, could be a valid target for selective activation of the GKAFRR-L12ADT (SEQ ID NO:44) prodrug in other types of cancer where plasmin activation may play an important role.

[4] = target: Cathepsin B (Homo sapiens, UniProt P07858); test: hydrolysis by tumor-associated proteases: Cathepsin B; type: biochemical
From the text: as §1

[5] = target: Plasmin (Homo sapiens, UniProt P00747); test: hydrolysis by tumor-associated proteases: Plasmin; type: biochemical
Plasmin, sequence (P00747 581-810 limits assumed, species assumed): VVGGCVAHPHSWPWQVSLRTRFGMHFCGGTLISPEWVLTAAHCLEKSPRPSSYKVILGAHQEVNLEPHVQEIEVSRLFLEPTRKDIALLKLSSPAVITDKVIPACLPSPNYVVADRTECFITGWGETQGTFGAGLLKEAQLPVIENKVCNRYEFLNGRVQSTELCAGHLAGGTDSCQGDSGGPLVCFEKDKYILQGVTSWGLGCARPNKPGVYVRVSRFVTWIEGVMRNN
Plasmin, sequence (P00747 97-580 partner limits assumed, species assumed): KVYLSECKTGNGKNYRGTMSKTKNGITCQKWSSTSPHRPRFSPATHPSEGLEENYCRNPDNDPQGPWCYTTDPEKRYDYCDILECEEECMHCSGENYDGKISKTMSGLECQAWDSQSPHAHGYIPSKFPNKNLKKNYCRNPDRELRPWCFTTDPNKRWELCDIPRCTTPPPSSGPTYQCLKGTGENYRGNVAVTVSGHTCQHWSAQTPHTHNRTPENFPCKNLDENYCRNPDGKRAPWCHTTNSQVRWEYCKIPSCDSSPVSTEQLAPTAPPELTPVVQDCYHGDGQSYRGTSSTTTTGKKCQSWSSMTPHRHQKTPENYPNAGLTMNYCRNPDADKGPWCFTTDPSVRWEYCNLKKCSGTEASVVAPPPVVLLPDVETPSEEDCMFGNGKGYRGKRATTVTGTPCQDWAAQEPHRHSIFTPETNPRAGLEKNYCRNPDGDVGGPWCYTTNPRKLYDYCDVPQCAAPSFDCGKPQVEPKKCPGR
From the text: as §1

[6] = target: T1, hK2 (Homo sapiens, UniProt P20151); test: hydrolysis in the protease panel: hK2; type: biochemical; conditions: enzyme 1 μg/ml, substrate 500 μM; 1 = approximately 0.1% digestion in 1 hour
T1 construct: made in house
T1 sequence (P20151 25-261): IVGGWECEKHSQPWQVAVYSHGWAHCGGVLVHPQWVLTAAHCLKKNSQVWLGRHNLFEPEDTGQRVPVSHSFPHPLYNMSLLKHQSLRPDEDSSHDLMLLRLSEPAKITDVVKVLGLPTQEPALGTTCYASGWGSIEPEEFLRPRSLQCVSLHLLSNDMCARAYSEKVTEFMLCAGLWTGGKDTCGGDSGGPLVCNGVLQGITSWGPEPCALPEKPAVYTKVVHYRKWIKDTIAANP
From the text: as §1

[7] = target: Urokinase (Homo sapiens, UniProt P00749); test: hydrolysis by tumor-associated proteases: Urokinase; type: biochemical
From the text: as §1

[8] = target: T1, hK2; test: hK2 hydrolysis of prodrug and non-fluorescent peptide by HPLC; type: biochemical; conditions: HPLC analysis
Protocol: FIG. 4 depicts HPLC analysis of the hydrolysis of the hK2 prodrug Ac-GKAFRR-L12ADT (SEQ ID NO:41) by hK2 ([…]) incubated in 50 mM Tris, 0.1 M NaCl, pH 7.8 at room temperature for 24 hours. The mass of each peak was confirmed by MALDI-TOF mass spectrometric analysis.
Fluorescent substrates were analyzed by means of a fluorescence plate-reader (ex=355 nm, em=460 nm). acGKAFRRL-12ADT (SEQ ID NO:41) and acGKAFRRLG (SEQ ID NO:43) were analyzed by HPLC and quantified by HLPC integration.
This putative hK2 prodrug was incubated with enzymatically active hK2 (4 μg/ml) to determine extent of hydrolysis over time. […] In 25 min, 50% was hydrolyzed and after 1 hour, more than 80% of the starting prodrug was hydrolyzed. The ratio of the products RL-12ADT:L-12ADT was 1:1.8, as determined by HPLC integration.

[9] = enzyme 1 μg/ml, substrate 500 μM, 1 = approximately 0.1% digestion in 1 hour

## C/C=C(/C)C(=O)O[C@H]1C(C)=C2[C@H]([C@@H]1OC(=O)CCCCCCC)[C@@](C)(OC(C)=O)C[C@H](OC(=O)CCC)[C@@]1(O)[C@H]2OC(=O)[C@@]1(C)O [TG, Thapsigargin]
[1]
  Kd: ≤ 2.2 pM

## CC(=O)N[C@@H](Cc1ccc(O)c([N+](=O)[O-])c1)C(=O)NCC(=O)N[C@@H](CCCCN)C(=O)N[C@@H](C)C(=O)N[C@@H](Cc1ccccc1)C(=O)N[C@@H](CCCNC(=N)N)C(=O)N[C@@H](CCCNC(=N)N)C(=O)N[C@@H](CC(C)C)C(=O)NCC(=O)N[C@@H](CCCCNC(=O)c1ccccc1N)C(=O)O [ac-Y′GKAFRRLGK′] (Ac-[Tyr(3-NO2)]GKAFRRLGK(2Abz)-OH)
[2]
  plasma hydrolysis compared with the non-acetylated peptide (in words): completely identical

## Abz-GKAFRRLY′: fluorescence quenched peptide substrate with the lead sequence GKAFRRL ([2Abz]GKAFRRL[Tyr(3-NO2)])
[3]
  hydrolysis following incubation with Cathepsin D (in words): No appreciable hydrolysis
[3]; [9]
  Relative hydrolysis rate, Cathepsin D: 1
[4]
  hydrolysis following incubation with Cathepsin B (in words): No appreciable hydrolysis
[4]; [9]
  Relative hydrolysis rate, Cathepsin B: 1
[5]; [9]
  Relative hydrolysis rate, Plasmin: 36
[5]; fluorescence quenched peptide substrate
  fold slower rate of hydrolysis by plasmin than by hK2: more than 10 fold
[6]
  Relative hydrolysis rate, hK2: 353
[7]
  activity of Urokinase on the substrate (in words): low activity
[7]; [9]
  Relative hydrolysis rate, Urokinase: 17

## ac-GKAFRRLG: acetylated non-fluorescence quenched peptide (Ac-GKAFRRLG)
[8]
  hydrolysis by hK2 (in words): rapidly hydrolyzed by hK2

— patent US7906477B2 (Genspera, Inc., priority 2002, dated 2011)
